Source: patent US20210187091A1 (published 2021)
Read-outs that look alike come from different tables or passages of the source.

T1: Man9-V3 glycopeptide (Man9GlcNAc2 at N301 and at N332; disulfide bridge between C296 and C331 (cyclized); biotin tag)
T1 peptide: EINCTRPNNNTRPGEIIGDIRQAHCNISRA


What was measured:
Man9-V3 glycopeptide [1] = target: T1, Man9-V3 glycopeptide; assay: BLI
Man9-V3 glycopeptide [2] = target: T1, Man9-V3 glycopeptide; assay: BLI

Row | Binder | Kd (Man9-V3 glycopeptide [1]) | Kd (Man9-V3 glycopeptide [2])
1 | DH270.5 (antibody, V domains shown) VH: QVQLVQSGAEVKNPGASVKVSCAPSGYTFTDFYIHWVRLAPGQGLEWLGWMNPKTGRTNQGQNFQGRVIMTRDTSIGTAYMELRSLTSDDTAVYYCVTGAWISDYYDSSYYPNFDHWGQGTLVTVSS VL: LPVLTQPASVSGSPGQSITISCTGTIYDVGKFDLVSWYQHHPGKAPKYLIYEVKKWPSGVSHRFSGSKSGNTASLTISGLQVEDEADYYCCSFGGSAAVVCGGGTKVTVL | 281 nM | 
2 | DH270.3 (antibody, V domains shown) VH: QVQLVQSGAEMKNPGASVKVSCAASGYTFTDFYIHWVRLAPGQGLEWMGWMNPKTGRTNNAQNFQGRVIMTRDTSIGTAYMELRRLTSDDTAVYYCVTGGWISPYYDSSYYPNFDHWGQGTLVTVSS VL: QSALTQPASVSGSPGQSITISCTGTSYDVGKFDLVSWYQQHPGKAPKYMIYEVNKWPSGVSHRFSGSKSGNTASLTISGLQAEDEADYYCCSFGGSATVVCGGGTKVTVL | 195 nM | 
3 | DH270.IA1 (antibody, V domains shown) VH: QVQLVQSGAEVKKPGASVKVSCKASGYTFTDYYIHWVRQAPGQGLEWMGWINPNTGRTNYAQKFQGRVIMTRDTSISTAYMELSRLRSDDTAVYYCARGGWIGLYYDSSGYPNFDYWGQGTLVTVSS VL: QSALTQPASVSGSPGQSITISCTGTSYDVGSYNLVSWYQQHPGKAPKLMIYEVSKRPSGVSNRFSGSKSGNTASLTISGLQAEDEADYYCCSYAGSSTVIFGGGTKLTVL |  | 3290 nM
4 | DH270.2 (antibody, V domains shown) VH: QVQLVQSGAEMKKPGASVRVSCKASGYTFTDYYIHWVRQAPGQGPEWMGWINPSTGRTNSPQKFQGRVIMTRDTSISTAYMDLNRLTSDDTAMYYCTTGGWIGLYSDTSGYPNFDYWGQGTLVTVSS VL: QSALTQPASVSGSPGQSITISCTGTNYDVGSYNLVSWYQQHPGKVPKYIIYEVNKRPSGVSNRFSGSKSGNTASLTISGLQAEDEADYYCCSYAGSSIIFFGGGTKLTVI | 4770 nM | 
5 | DH270.4 (antibody, V domains shown) VH: EVQLVQSGAEMKNPGASVKVSCAASGYGFTDFYIHWVRLAPGHGLQWMGWMNPKTGRTNNAQDFQGRVILTRDTSIGTAYMELRRLTSDDTAVYYCVTGGWISPYYDSSYYPNFDHWGQGTLITVSS VL: QSALTQPASVSGSPGQSITISCTGTSYDVAKFDLVSWFQQHPGKAPKYMIYEVNKWPSGVSHRFSGSKSGNTASLTISGLQAEDEADYYCCSFGGSATVVCGGGTKVTVL | 346 nM | 
